Reference: patent US20110118447A1

B1: C5A (XPA23) VL A51S (antibody, V domains shown)
VH: EVQLLESGGGLVQPGGSLRLSCAASGFTFSKYFMFWVRQAPGKGLEWVSVISPSGGMTRYADSVKGRFTISRDNSKNTLYLQMNSLRAEDTAVYYCARVGYGGNSDYWGQGTLVTVSS
VL: DIQMTQSPSSVSASVGDRLTIICRASQDINRWLAWYQQTPGNAPKLLIHSSTSLQSGVPSRFSGSGSGTDFTLTINSLQPEDFATYYCQQADSFPLTFGGGTKVEIK
B2: C5A (XPA23) VL S53E (antibody, V domains shown)
VH: EVQLLESGGGLVQPGGSLRLSCAASGFTFSKYFMFWVRQAPGKGLEWVSVISPSGGMTRYADSVKGRFTISRDNSKNTLYLQMNSLRAEDTAVYYCARVGYGGNSDYWGQGTLVTVSS
VL: DIQMTQSPSSVSASVGDRLTIICRASQDINRWLAWYQQTPGNAPKLLIHSATELQSGVPSRFSGSGSGTDFTLTINSLQPEDFATYYCQQADSFPLTFGGGTKVEIK
B3: C5A (XPA23) VL T52K (antibody, V domains shown)
VH: EVQLLESGGGLVQPGGSLRLSCAASGFTFSKYFMFWVRQAPGKGLEWVSVISPSGGMTRYADSVKGRFTISRDNSKNTLYLQMNSLRAEDTAVYYCARVGYGGNSDYWGQGTLVTVSS
VL: DIQMTQSPSSVSASVGDRLTIICRASQDINRWLAWYQQTPGNAPKLLIHSAKSLQSGVPSRFSGSGSGTDFTLTINSLQPEDFATYYCQQADSFPLTFGGGTKVEIK
B4: C5A (XPA23) VL T52E (antibody, V domains shown)
VH: EVQLLESGGGLVQPGGSLRLSCAASGFTFSKYFMFWVRQAPGKGLEWVSVISPSGGMTRYADSVKGRFTISRDNSKNTLYLQMNSLRAEDTAVYYCARVGYGGNSDYWGQGTLVTVSS
VL: DIQMTQSPSSVSASVGDRLTIICRASQDINRWLAWYQQTPGNAPKLLIHSAESLQSGVPSRFSGSGSGTDFTLTINSLQPEDFATYYCQQADSFPLTFGGGTKVEIK
B5: C5A (XPA23) VL T52S (antibody, V domains shown)
VH: EVQLLESGGGLVQPGGSLRLSCAASGFTFSKYFMFWVRQAPGKGLEWVSVISPSGGMTRYADSVKGRFTISRDNSKNTLYLQMNSLRAEDTAVYYCARVGYGGNSDYWGQGTLVTVSS
VL: DIQMTQSPSSVSASVGDRLTIICRASQDINRWLAWYQQTPGNAPKLLIHSASSLQSGVPSRFSGSGSGTDFTLTINSLQPEDFATYYCQQADSFPLTFGGGTKVEIK
B6: C5A (XPA23) VL T52R (antibody, V domains shown)
VH: EVQLLESGGGLVQPGGSLRLSCAASGFTFSKYFMFWVRQAPGKGLEWVSVISPSGGMTRYADSVKGRFTISRDNSKNTLYLQMNSLRAEDTAVYYCARVGYGGNSDYWGQGTLVTVSS
VL: DIQMTQSPSSVSASVGDRLTIICRASQDINRWLAWYQQTPGNAPKLLIHSARSLQSGVPSRFSGSGSGTDFTLTINSLQPEDFATYYCQQADSFPLTFGGGTKVEIK
B7: C5A (XPA23) VL A51T (antibody, V domains shown)
VH: EVQLLESGGGLVQPGGSLRLSCAASGFTFSKYFMFWVRQAPGKGLEWVSVISPSGGMTRYADSVKGRFTISRDNSKNTLYLQMNSLRAEDTAVYYCARVGYGGNSDYWGQGTLVTVSS
VL: DIQMTQSPSSVSASVGDRLTIICRASQDINRWLAWYQQTPGNAPKLLIHSTTSLQSGVPSRFSGSGSGTDFTLTINSLQPEDFATYYCQQADSFPLTFGGGTKVEIK
B8: C5A (XPA23) VL T52Q (antibody, V domains shown)
VH: EVQLLESGGGLVQPGGSLRLSCAASGFTFSKYFMFWVRQAPGKGLEWVSVISPSGGMTRYADSVKGRFTISRDNSKNTLYLQMNSLRAEDTAVYYCARVGYGGNSDYWGQGTLVTVSS
VL: DIQMTQSPSSVSASVGDRLTIICRASQDINRWLAWYQQTPGNAPKLLIHSAQSLQSGVPSRFSGSGSGTDFTLTINSLQPEDFATYYCQQADSFPLTFGGGTKVEIK
B9: C5A (XPA23) VL T52Y (antibody, V domains shown)
VH: EVQLLESGGGLVQPGGSLRLSCAASGFTFSKYFMFWVRQAPGKGLEWVSVISPSGGMTRYADSVKGRFTISRDNSKNTLYLQMNSLRAEDTAVYYCARVGYGGNSDYWGQGTLVTVSS
VL: DIQMTQSPSSVSASVGDRLTIICRASQDINRWLAWYQQTPGNAPKLLIHSAYSLQSGVPSRFSGSGSGTDFTLTINSLQPEDFATYYCQQADSFPLTFGGGTKVEIK
B10: C5A (XPA23) VL T52D (antibody, V domains shown)
VH: EVQLLESGGGLVQPGGSLRLSCAASGFTFSKYFMFWVRQAPGKGLEWVSVISPSGGMTRYADSVKGRFTISRDNSKNTLYLQMNSLRAEDTAVYYCARVGYGGNSDYWGQGTLVTVSS
VL: DIQMTQSPSSVSASVGDRLTIICRASQDINRWLAWYQQTPGNAPKLLIHSADSLQSGVPSRFSGSGSGTDFTLTINSLQPEDFATYYCQQADSFPLTFGGGTKVEIK
B11: C5A (XPA23) VL A51Y (antibody, V domains shown)
VH: EVQLLESGGGLVQPGGSLRLSCAASGFTFSKYFMFWVRQAPGKGLEWVSVISPSGGMTRYADSVKGRFTISRDNSKNTLYLQMNSLRAEDTAVYYCARVGYGGNSDYWGQGTLVTVSS
VL: DIQMTQSPSSVSASVGDRLTIICRASQDINRWLAWYQQTPGNAPKLLIHSYTSLQSGVPSRFSGSGSGTDFTLTINSLQPEDFATYYCQQADSFPLTFGGGTKVEIK
B12: C5A (XPA23) VL A51N (antibody, V domains shown)
VH: EVQLLESGGGLVQPGGSLRLSCAASGFTFSKYFMFWVRQAPGKGLEWVSVISPSGGMTRYADSVKGRFTISRDNSKNTLYLQMNSLRAEDTAVYYCARVGYGGNSDYWGQGTLVTVSS
VL: DIQMTQSPSSVSASVGDRLTIICRASQDINRWLAWYQQTPGNAPKLLIHSNTSLQSGVPSRFSGSGSGTDFTLTINSLQPEDFATYYCQQADSFPLTFGGGTKVEIK
B13: C5A (XPA23) VL T52N (antibody, V domains shown)
VH: EVQLLESGGGLVQPGGSLRLSCAASGFTFSKYFMFWVRQAPGKGLEWVSVISPSGGMTRYADSVKGRFTISRDNSKNTLYLQMNSLRAEDTAVYYCARVGYGGNSDYWGQGTLVTVSS
VL: DIQMTQSPSSVSASVGDRLTIICRASQDINRWLAWYQQTPGNAPKLLIHSANSLQSGVPSRFSGSGSGTDFTLTINSLQPEDFATYYCQQADSFPLTFGGGTKVEIK
B14: C5A (XPA23) VL A51Q (antibody, V domains shown)
VH: EVQLLESGGGLVQPGGSLRLSCAASGFTFSKYFMFWVRQAPGKGLEWVSVISPSGGMTRYADSVKGRFTISRDNSKNTLYLQMNSLRAEDTAVYYCARVGYGGNSDYWGQGTLVTVSS
VL: DIQMTQSPSSVSASVGDRLTIICRASQDINRWLAWYQQTPGNAPKLLIHSQTSLQSGVPSRFSGSGSGTDFTLTINSLQPEDFATYYCQQADSFPLTFGGGTKVEIK
B15: C5A (XPA23) VL T52H (antibody, V domains shown)
VH: EVQLLESGGGLVQPGGSLRLSCAASGFTFSKYFMFWVRQAPGKGLEWVSVISPSGGMTRYADSVKGRFTISRDNSKNTLYLQMNSLRAEDTAVYYCARVGYGGNSDYWGQGTLVTVSS
VL: DIQMTQSPSSVSASVGDRLTIICRASQDINRWLAWYQQTPGNAPKLLIHSAHSLQSGVPSRFSGSGSGTDFTLTINSLQPEDFATYYCQQADSFPLTFGGGTKVEIK

Molecular target: binding partner of C5A (XPA23)
Assay: Biacore K-off

Going from B1 to B2, the fold difference in affinity vs original rises from 0.95 fold to 1.13 fold.

Going from B3 to B4, the fold difference in affinity vs original falls from 3.23 fold to 0.61 fold.

First: B5
Second: B6
The fold difference in affinity vs original of the first is lower: 0.78 fold for the first, 3.37 fold for the second.

Going from B7 to B8, the fold difference in affinity vs original rises from 0.76 fold to 0.83 fold.

First: B9
Second: B10
The fold difference in affinity vs original of the first is higher: 1.01 fold for the first, 0.72 fold for the second.

Compared with B11, B12 is lower in fold difference in affinity vs original: 0.45 fold for the first, 0.3 fold for the second.

Going from B13 to B14, the fold difference in affinity vs original falls from 0.83 fold to 0.24 fold.

B15 was tested, and the fold difference in affinity vs original was 0.91 fold.
